Laboratory results taken from patent US20200040059A1.
Each block holds one substance with its values, some of them ahead of it.

Columns and labels:
CD28 (human) [1] = molecular target: CD28 (human) (UniProt P10747); assay: flow cytometry on HEK293 cells transfected with CD28
CTLA4 (human) [2] = molecular target: CTLA4 (human) (UniProt P16410); assay: flow cytometry on HEK293 cells transfected with CTLA4
PD-L1 (human) [3] = molecular target: PD-L1 (human) (UniProt Q9NZQ7); assay: flow cytometry on HEK293 cells transfected with PD-L1
CTLA4 (human) [4] = molecular target: CTLA4 (human) (UniProt P16410); assay: flow cytometry, MFI on CTLA4 cells over MFI on CD28 cells
[5] = molecular target: T1, human CD226, full length, expressed on transfected Expi293 cells (human) (UniProt Q15762); assay: flow cytometry, Expi293 cells transfected with full-length human CD226
T1 sequence: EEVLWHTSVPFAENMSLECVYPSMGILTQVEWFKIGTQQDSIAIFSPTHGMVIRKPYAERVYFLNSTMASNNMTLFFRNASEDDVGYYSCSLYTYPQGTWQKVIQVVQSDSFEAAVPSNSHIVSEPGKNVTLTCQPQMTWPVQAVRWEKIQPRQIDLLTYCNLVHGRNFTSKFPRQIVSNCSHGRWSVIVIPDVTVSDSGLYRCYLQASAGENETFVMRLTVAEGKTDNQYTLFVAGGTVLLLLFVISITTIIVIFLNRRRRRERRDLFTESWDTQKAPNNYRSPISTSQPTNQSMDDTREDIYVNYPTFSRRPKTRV

TIGIT (human) = molecular target: T2, TIGIT (human) (UniProt Q495A1); assay: flow cytometry on TIGIT-expressing cells
T2 sequence: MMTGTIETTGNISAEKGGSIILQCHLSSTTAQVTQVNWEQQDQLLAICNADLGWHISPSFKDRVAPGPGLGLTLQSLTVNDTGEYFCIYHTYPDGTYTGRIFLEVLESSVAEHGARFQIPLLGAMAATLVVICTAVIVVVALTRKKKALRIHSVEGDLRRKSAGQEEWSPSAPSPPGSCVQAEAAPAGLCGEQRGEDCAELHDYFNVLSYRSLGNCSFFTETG

[6] = molecular target: human CD112R, full length, expressed on transfected Expi293 cells (human) (UniProt Q6DKI7); assay: flow cytometry, Expi293 cells transfected with full-length human CD112R
CD28 (human) [7] = molecular target: CD28 (human) (UniProt P10747); assay: flow cytometry; MFI vs m14
human B7-H6 (human) [8] = molecular target: human B7-H6 (human) (UniProt Q68D85); assay: flow cytometry; MFI vs m14
CD28 (human) [9] = molecular target: CD28 (human) (UniProt P10747); assay: flow cytometry, transfected cells
human B7-H6 (human) [10] = molecular target: human B7-H6 (human) (UniProt Q68D85); assay: flow cytometry, transfected cells
CD28 (human) [11] = molecular target: CD28 (human) (UniProt P10747); assay: flow cytometry; MFI vs m21
PD-L1 (human) [12] = molecular target: PD-L1 (human) (UniProt Q9NZQ7); assay: flow cytometry; MFI vs m21
PD-L1 (human) [13] = molecular target: PD-L1 (human) (UniProt Q9NZQ7); assay: flow cytometry, transfected cells
CTLA4 (human) [14] = molecular target: CTLA4 (human) (UniProt P16410); assay: flow cytometry; MFI vs m21
CTLA4 (human) [15] = molecular target: CTLA4 (human) (UniProt P16410); assay: flow cytometry, transfected cells
human ICOS (human) = assay: flow cytometry, transfected cells
CTLA4 (human) [16] = molecular target: CTLA4 (human) (UniProt P16410); assay: flow cytometry, transfected cells; column head doubtful
PD-L1 (human) [17] = molecular target: PD-L1 (human) (UniProt Q9NZQ7); assay: as above
human B7-H6 (human) [18] = molecular target: human B7-H6 (human) (UniProt Q68D85); assay: flow cytometry; MFI vs m9
human B7-H6 (human) [19] = molecular target: human B7-H6 (human) (UniProt Q68D85); assay: flow cytometry; MFI vs m10
CD96 = molecular target: T3, CD96 (UniProt P40200); assay: flow cytometry on CD96-expressing cells
T3 sequence (looked up): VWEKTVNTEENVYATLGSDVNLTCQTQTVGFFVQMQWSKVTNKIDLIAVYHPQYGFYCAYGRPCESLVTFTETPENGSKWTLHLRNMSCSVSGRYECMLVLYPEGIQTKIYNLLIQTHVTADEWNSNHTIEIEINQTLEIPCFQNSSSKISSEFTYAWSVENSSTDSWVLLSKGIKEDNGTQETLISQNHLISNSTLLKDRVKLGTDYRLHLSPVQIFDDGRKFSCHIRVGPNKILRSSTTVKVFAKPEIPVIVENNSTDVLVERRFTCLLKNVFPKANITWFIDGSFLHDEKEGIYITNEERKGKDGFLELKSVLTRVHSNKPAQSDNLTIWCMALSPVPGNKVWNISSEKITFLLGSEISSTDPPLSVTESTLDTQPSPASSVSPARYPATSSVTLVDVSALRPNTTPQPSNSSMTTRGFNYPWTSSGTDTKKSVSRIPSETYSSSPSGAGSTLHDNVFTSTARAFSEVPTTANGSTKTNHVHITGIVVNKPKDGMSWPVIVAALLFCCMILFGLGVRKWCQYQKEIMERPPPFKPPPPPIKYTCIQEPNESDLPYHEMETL

CD112R (human) = CD112R (human) (UniProt Q6DKI7); assay: flow cytometry on CD112R-expressing cells
[20] = molecular target: human CD28, full-length, expressed on transfected Expi293 cells (human) (UniProt P10747); assay: flow cytometry on CD28-expressing Expi293 cells
[21] = molecular target: human ICOS, full-length, expressed on transfected Expi293 cells (human) (UniProt Q9Y6W8); assay: flow cytometry on ICOS-expressing Expi293 cells
[22] = molecular target: human B7-H6, full-length, expressed on transfected Expi293 cells (human) (UniProt Q68D85); assay: flow cytometry on B7-H6-expressing Expi293 cells
[23] = molecular target: CD80 (Homo sapiens (Human)) (UniProt P33681); assay: flow cytometry, cells expressing CD80
[24] = molecular target: PD-1 (Homo sapiens (Human)) (UniProt Q15116); assay: flow cytometry, cells expressing PD-1
[25] = molecular target: PD-1 (Homo sapiens (Human)) (UniProt Q15116); assay: flow cytometry, cells expressing PD-1; vs WT PD-L1 (IgV + IgC) Fc
[26] = molecular target: CD80 (Homo sapiens (Human)) (UniProt P33681); assay: flow cytometry, cells expressing CD80; vs WT PD-L1 (IgV + IgC) Fc
Target sequence in this assay (P33681 35-288 limits assumed): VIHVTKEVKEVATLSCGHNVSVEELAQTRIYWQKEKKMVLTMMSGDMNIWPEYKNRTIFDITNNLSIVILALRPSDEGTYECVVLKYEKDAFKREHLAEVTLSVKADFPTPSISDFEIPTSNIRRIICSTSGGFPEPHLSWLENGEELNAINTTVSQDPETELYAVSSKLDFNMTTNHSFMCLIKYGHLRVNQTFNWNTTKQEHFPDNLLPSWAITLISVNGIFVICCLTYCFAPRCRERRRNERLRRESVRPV

PD-1-Fc = assay: Fortebio (BLI), PD-1-Fc
[27] = molecular target: PD-1 (Homo sapiens (Human)) (UniProt Q15116); assay: flow cytometry, Jurkat/PD-1 cells
[28] = molecular target: PD-1 (Homo sapiens (Human)) (UniProt Q15116); assay: flow cytometry, Jurkat/PD-1 cells; vs wildtype PD-L2 IgV-Fc

Chain of CTLA4 (human) (P16410 36-223 limits assumed): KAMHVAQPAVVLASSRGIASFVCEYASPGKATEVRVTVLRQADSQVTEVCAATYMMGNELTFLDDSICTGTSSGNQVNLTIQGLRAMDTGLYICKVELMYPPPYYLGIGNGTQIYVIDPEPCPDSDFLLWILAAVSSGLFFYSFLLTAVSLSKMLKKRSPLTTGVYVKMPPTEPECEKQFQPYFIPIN
Chain of PD-L1 (human) (Q9NZQ7 19-290 limits assumed): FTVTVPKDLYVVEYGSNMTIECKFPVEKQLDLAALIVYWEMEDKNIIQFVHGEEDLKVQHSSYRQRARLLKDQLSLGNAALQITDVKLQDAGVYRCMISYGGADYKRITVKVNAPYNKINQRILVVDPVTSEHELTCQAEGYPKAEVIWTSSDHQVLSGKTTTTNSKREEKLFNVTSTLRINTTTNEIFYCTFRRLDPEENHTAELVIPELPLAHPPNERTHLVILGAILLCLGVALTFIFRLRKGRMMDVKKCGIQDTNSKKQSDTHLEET
Chain of PD-1 (Homo sapiens (Human)) (Q15116 21-288 limits assumed, form in doubt): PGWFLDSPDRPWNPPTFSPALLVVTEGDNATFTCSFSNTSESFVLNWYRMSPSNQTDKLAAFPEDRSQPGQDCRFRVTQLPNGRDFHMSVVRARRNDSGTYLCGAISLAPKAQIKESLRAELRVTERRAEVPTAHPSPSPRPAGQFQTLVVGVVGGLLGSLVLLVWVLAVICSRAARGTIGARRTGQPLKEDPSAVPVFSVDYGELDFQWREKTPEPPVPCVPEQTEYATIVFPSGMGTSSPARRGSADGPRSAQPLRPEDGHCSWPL
Chain of Domain 1: CD80 WT / Domain 2: CD80 WT / Fc (Fc fusion) (chain): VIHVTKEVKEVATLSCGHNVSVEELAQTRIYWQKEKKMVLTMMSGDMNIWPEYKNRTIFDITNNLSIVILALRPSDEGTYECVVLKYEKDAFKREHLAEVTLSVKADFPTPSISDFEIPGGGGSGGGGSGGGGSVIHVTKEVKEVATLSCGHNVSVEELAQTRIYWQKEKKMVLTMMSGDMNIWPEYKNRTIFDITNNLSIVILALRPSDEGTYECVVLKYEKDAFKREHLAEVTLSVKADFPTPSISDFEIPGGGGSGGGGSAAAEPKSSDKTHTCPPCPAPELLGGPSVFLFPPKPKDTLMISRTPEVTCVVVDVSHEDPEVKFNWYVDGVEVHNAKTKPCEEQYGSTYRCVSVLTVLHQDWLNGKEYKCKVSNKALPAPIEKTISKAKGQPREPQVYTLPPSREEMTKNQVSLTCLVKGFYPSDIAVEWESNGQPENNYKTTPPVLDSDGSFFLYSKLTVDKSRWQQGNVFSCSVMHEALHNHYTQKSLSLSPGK
Chain of human B7-H6 (human) (Q68D85 25-454): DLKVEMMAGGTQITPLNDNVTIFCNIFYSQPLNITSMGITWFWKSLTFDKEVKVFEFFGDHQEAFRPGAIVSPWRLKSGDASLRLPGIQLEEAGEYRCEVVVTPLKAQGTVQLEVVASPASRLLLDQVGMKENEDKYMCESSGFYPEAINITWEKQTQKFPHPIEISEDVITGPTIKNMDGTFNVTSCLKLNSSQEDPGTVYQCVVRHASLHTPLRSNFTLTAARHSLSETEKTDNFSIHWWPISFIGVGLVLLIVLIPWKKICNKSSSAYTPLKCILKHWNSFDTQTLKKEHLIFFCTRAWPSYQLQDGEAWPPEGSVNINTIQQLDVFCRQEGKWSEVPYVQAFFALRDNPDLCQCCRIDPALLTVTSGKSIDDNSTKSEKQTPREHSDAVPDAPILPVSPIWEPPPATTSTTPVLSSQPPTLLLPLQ
Chain of Domain 1: ICOSL WT / Domain 2: CD80 WT / Fc (Fc fusion) (chain): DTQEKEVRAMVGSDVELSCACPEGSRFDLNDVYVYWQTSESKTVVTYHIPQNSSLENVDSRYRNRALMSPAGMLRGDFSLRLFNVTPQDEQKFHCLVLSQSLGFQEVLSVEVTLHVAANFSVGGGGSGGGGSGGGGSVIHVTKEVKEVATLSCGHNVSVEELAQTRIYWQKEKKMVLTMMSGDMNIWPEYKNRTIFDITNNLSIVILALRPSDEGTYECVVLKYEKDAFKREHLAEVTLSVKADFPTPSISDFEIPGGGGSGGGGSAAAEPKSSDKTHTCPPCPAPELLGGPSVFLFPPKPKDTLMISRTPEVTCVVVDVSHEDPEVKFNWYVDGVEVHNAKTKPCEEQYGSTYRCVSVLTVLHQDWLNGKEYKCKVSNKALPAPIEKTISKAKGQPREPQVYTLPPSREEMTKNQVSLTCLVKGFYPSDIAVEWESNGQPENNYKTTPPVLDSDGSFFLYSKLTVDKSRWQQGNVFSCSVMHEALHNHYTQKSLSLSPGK
Chain of Wildtype CD112-IgV Fc (Q92692 32-156 limits assumed): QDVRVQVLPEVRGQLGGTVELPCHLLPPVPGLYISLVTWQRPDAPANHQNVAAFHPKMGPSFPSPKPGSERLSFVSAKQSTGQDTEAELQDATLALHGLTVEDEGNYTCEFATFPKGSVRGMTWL
Chain of human B7-H6, full-length, expressed on transfected Expi293 cells (human) (Q68D85 25-454): as the sequence (Q68D85 25-454) above
Chain of CD112R (human) (Q6DKI7 whole entry): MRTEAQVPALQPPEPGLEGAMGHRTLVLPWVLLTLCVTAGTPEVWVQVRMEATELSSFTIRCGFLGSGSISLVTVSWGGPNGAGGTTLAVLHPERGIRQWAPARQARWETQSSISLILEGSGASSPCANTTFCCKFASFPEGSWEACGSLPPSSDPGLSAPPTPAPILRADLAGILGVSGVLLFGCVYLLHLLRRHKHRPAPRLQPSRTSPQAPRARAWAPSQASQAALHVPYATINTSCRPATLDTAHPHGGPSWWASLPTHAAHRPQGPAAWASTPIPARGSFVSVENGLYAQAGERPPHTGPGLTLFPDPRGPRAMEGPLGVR
Chain of human CD112R, full length, expressed on transfected Expi293 cells (human) (Q6DKI7 whole entry): as above
Chain of human ICOS, full-length, expressed on transfected Expi293 cells (human) (Q9Y6W8 21-199 limits assumed): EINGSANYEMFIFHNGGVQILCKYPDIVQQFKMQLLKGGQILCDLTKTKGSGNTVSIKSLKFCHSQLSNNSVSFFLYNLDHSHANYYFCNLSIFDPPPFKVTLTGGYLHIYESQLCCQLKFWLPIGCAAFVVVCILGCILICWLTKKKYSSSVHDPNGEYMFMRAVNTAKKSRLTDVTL
Chain of human ICOS (human) (Q9Y6W8 whole entry): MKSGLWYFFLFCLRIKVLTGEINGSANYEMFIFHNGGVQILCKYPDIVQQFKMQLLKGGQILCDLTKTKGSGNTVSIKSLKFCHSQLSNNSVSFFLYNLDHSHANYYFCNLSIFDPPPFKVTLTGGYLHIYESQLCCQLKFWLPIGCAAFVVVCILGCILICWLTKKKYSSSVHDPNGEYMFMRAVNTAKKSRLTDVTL

- Fold change to WT (CD28 (human) [1]): 0.1 fold
- MFI at 66.6 nM (CD28 (human) [1]): 2600 MFI
- Fold change to WT (CTLA4 (human) [2]): 0 fold
- MFI at 66.6 nM (CTLA4 (human) [2]): 2230 MFI
- MFI at 22.2 nM (PD-L1 (human) [3]): 5160 MFI
- Ratio of CTLA4:CD28 (CTLA4 (human) [4]): 0.9
Substance: CD80 IgV-Fc I30T/L70R (Fc fusion)

- MFI [5]: 51900 MFI
Substance: CD112 variant A95V, A112I IgV-Fc fusion (from UniProt Q92692 32-156)

- MFI 100 nM (TIGIT (human)): 4270 MFI
Substance: CD112 variant G82S, S118Y IgV-Fc (from UniProt Q92692 32-156) (Fc fusion)

- WT parental MFI ratio (CD28 (human) [7]): 0.32
- WT parental MFI ratio (human B7-H6 (human) [8]): 0.5
- MFI (CD28 (human) [9]): 4340
- MFI (human B7-H6 (human) [10]): 55700
Substance: Domain 1: CD80 (R29H/Y31H/T41G/Y87N/E88G/K89E/D90N/A91G/P109S) / Domain 2: NKp30 (L30V/A60V/S64P/S86G) / Fc (Fc fusion)

- WT parental MFI ratio (CD28 (human) [11]): 0.57
- WT parental MFI ratio (PD-L1 (human) [12]): 0.16
- MFI (CD28 (human) [9]): 938
- MFI (PD-L1 (human) [13]): 995
Substance: Domain 1: CD80 I67T/L70Q/A91G/T120S / Domain 2: CD80 E88D/K89R/D90K/A91G/F92Y/K93R / Fc (Fc fusion)

- WT parental MFI ratio (human B7-H6 (human) [8]): 1
- MFI (CD28 (human) [9]): 13700
- MFI (human B7-H6 (human) [10]): 110000
Substance: Domain 1: CD80 WT / Domain 2: Nkp30 WT / Fc (Fc fusion)

- WT parental MFI ratio (human B7-H6 (human) [18]): 1
- MFI (CD28 (human) [9]): 7020
- MFI (human B7-H6 (human) [10]): 88800
Substance: Domain 1: NKp30 WT / Domain 2: CD80 WT / Fc (Fc fusion)

- MFI at 20 nM [23]: 149
- MFI at 20 nM [24]: 81
- Fold Change Compared to WT PD-L1 [25]: 0 fold
Substance: variant PD-L1 ECD-Fc I36T, G52R, M97L, V112A, K144E, V175A, P198T (Fc fusion)

- MFI at 20 nM [23]: 190
- MFI at 20 nM [24]: 69
- Fold Change Compared to WT PD-L1 [25]: 0 fold
Substance: variant PD-L1 ECD-Fc I36T, I46V, D55G, M97L, K106E, K144E, T185A, R195G (Fc fusion)

- MFI at 20 nM [23]: 12900
- Fold Change Compared to WT PD-L1 [26]: 96.3 fold
Substance: variant PD-L1 ECD-Fc K57R, S99G, F189L (from UniProt Q9NZQ7 19-239) (Fc fusion)

Continued, substance first:

Substance: CD112 variant S118Y IgV-Fc fusion (from UniProt Q92692 32-156)
- MFI [6]: 6540 MFI

Substance: Domain 1: CD80 R29V/Y31F/K36G/M38L/M43Q/E81R/V83I/L85I/K89R/D90L/A91E/F92N/K93Q/R94G / Domain 2: CD80 E88D/K89R/D90K/A91G/F92Y/K93R / Fc (Fc fusion)
- WT parental MFI ratio (CTLA4 (human) [14]): 0.42
- WT parental MFI ratio (PD-L1 (human) [12]): 0.31
- MFI (CTLA4 (human) [15]): 1990
- MFI (PD-L1 (human) [13]): 1930

Substance: Domain 1: CD80 WT / Domain 2: CD80 WT / Fc (Fc fusion)
- MFI (CD28 (human) [9]): 1630
- MFI (CTLA4 (human) [15]): 4700
- MFI (PD-L1 (human) [13]): 6300

Substance: Domain 1: ICOSL WT / Domain 2: CD80 WT / Fc (Fc fusion)
- MFI (CD28 (human) [9]): 3000
- MFI (PD-L1 (human) [13]): 2970
- MFI (human ICOS (human)): 14400
- MFI (CTLA4 (human) [16]): 14400
- MFI (PD-L1 (human) [17]): 3000

Substance: Domain 1: NKp30 WT / Domain 2: CD86 WT / Fc (Fc fusion)
- WT parental MFI ratio (human B7-H6 (human) [19]): 1
- MFI (CD28 (human) [9]): 1690
- MFI (human B7-H6 (human) [10]): 14100

Substance: Wildtype CD112-IgV Fc (from UniProt Q92692 32-156) (Fc fusion)
- MFI at 100 nM (CD96): 8540 MFI
- MFI at 100 nM (CD112R (human)): 4840 MFI

Substance: stacked Fc fusion, Domain 1: ICOSL WT / Domain 2: Nkp30 WT
- MFI [20]: 7920 MFI
- MFI [21]: 70300 MFI
- MFI [22]: 118000 MFI
- WT parental MFI ratio (ratio to WT stack) [22]: 1

Substance: variant PD-L2 IgV-Fc H15Q, R76G, I85F (SEQ ID NO 1505) (Fc fusion)
- Fortebio binding to PD-1-Fc Response Units (Response Units) (PD-1-Fc): -0.006
- MFI at 50 nM [27]: 1890
- Fold increase over wildtype PD-L2 IgV-Fc [28]: 0.19 fold

Substance: variant PD-L2 IgV-Fc I13V, H15Q, T47A, Q82R, V89D (SEQ ID NO 1545) (Fc fusion)
- Fortebio binding to PD-1-Fc Response Units (Response Units) (PD-1-Fc): 1.45
- MFI at 50 nM [27]: 61000
- Fold increase over wildtype PD-L2 IgV-Fc [28]: 6.2 fold
